Source: PMC7293203 (Chembiochem : a European journal of chemical biology, 2019)

What was measured:
[1] = target: the molecule itself; assay: native MS
[2] = target: tryptophan synthase α-subunit TrpA from Zea mays, wild type (Zea mays); assay: activity titration

B1: tryptophan synthase β-subunit TrpB1 from Zea mays (enzyme)
chain: GRFGGKYVPETLMHALTELENAFHALATDDEFQKELDGILKDYVGRESPLYFAERLTEHYKRADGTGPLIYLKREDLNHRGAHKINNAVAQALLAKRLGKQRIIAETGAGQHGVATATVCARFGLQCIIYMGAQDMERQALNVFRMKLLGAEVRAVHSGTATLKDATSEAIRDWVTNVETTHYILGSVAGPHPYPMMVREFHKVIGKETRRQAMHKWGGKPDVLVACVGGGSNAMGLFHEFVEDQDVRLIGVEAAGHGVDTDKHAATLTKGQVGVLHGSMSYLLQDDDGQVIEPHSISAGLDYPGVGPEHSFLKDIGRAEYDSVTDQEALDAFKRVSRLEGIIPALETSHALAYLEKLCPTLPDGVRVVLNCSGRGDKDVHTASKYLDV
- stoichiometry N [1]: 2
- Kd [2]: 0.5 µM
